B1: RNA-binding protein FUS (Homo sapiens), P35637 (parent)
chain: MASNDYTQQATQSYGAYPTQPGQGYSQQSSQPYGQQSYSGYSQSTDTSGYGQSSYSSYGQSQNTGYGTQSTPQGYGSTGGYGSSQSSQSSYGQQSSYPGYGQQPAPSSTSGSYGSSSQSSSYGQPQSGSYSQQPSYGGQQQSYGQQQSYNPPQGYGQQNQYNSSSGGGGGGGGGGNYGQDQSSMSSGGGSGGGYGNQDQSGGGGSGGYGQQDRGGRGRGGSGGGGGGGGGGYNRSSGGYEPRGRGGGRGGRGGMGGSDRGGFNKFGGPRDQGSRHDSEQDNSDNNTIFVQGLGENVTIESVADYFKQIGIIKTNKKTGQPMINLYTDRETGKLKGEATVSFDDPPSAKAAIDWFDGKEFSGNPIKVSFATRRADFNRGGGNGRGGRGRGGPMGRGGYGGGGSGGGGRGGFPSGGGGGGGQQRAGDWKCPNPTCENMNFSWRNECNQCKAPKPDGPGGGPGGSHMGGNYGDDRRGGRGGYDRGGYRGRGGDRGGFRGGRGGGDRGGFGPGKMDSRGEHRQDRRERPY

Variants of: B1
Conditions: with TNPO1, Q92973-2
Sequence of TNPO1, Q92973-2 (Q92973 9-898): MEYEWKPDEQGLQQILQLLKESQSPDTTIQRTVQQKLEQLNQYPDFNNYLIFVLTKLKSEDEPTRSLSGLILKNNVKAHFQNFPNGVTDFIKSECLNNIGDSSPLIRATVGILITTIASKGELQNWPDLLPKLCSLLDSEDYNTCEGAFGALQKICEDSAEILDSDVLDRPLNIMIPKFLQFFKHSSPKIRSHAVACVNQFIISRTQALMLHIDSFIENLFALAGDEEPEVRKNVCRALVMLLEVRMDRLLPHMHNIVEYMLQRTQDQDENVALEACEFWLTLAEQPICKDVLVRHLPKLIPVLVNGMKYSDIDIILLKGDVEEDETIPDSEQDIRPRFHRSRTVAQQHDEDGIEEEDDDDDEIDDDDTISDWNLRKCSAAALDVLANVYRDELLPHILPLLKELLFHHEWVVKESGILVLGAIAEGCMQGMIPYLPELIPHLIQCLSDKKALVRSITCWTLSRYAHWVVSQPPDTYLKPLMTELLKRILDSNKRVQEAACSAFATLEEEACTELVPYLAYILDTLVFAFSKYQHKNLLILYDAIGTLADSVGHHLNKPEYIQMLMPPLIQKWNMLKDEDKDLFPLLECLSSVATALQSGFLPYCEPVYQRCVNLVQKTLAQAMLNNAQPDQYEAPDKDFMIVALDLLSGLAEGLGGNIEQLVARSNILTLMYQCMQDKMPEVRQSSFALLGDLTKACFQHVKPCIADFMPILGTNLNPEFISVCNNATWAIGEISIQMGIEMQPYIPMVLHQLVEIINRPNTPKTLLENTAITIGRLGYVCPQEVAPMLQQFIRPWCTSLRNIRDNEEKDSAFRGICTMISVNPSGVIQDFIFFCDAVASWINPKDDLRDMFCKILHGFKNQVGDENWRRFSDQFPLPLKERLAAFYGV

Row | Variant | effect of a mutation on the interaction
1 | MASNDYTQQATQSYGAYPTQPGQGYSQQSSQPYGQQSYSGYSQSTDTSGYGQSSYSSYGQSQNTGYGTQSTPQGYGSTGGYGSSQSSQSSYGQQSSYPGYGQQPAPSSTSGSYGSSSQSSSYGQPQSGSYSQQPSYGGQQQSYGQQQSYNPPQGYGQQNQYNSSSGGGGGGGGGGNYGQDQSSMSSGGGSGGGYGNQDQSGGGGSGGYGQQDRGGRGRGGSGGGGGGGGGGYNRSSGGYEPRGRGGGRGGRGGMGGSDRGGFNKFGGPRDQGSRHDSEQDNSDNNTIFVQGLGENVTIESVADYFKQIGIIKTNKKTGQPMINLYTDRETGKLKGEATVSFDDPPSAKAAIDWFDGKEFSGNPIKVSFATRRADFNRGGGNGRGGRGRGGPMGRGGYGGGGSGGGGRGGFPSGGGGGGGQQRAGDWKCPNPTCENMNFSWRNECNQCKAPKPDGPGGGPGGSHMGGNYGDDRRGGRGGYDRGGYRGRGGDRGGFRGGRGGGDRGGFGPGKMDSRGEHRQDRRESPY [R524S] | decreasing interaction strength
2 | MASNDYTQQATQSYGAYPTQPGQGYSQQSSQPYGQQSYSGYSQSTDTSGYGQSSYSSYGQSQNTGYGTQSTPQGYGSTGGYGSSQSSQSSYGQQSSYPGYGQQPAPSSTSGSYGSSSQSSSYGQPQSGSYSQQPSYGGQQQSYGQQQSYNPPQGYGQQNQYNSSSGGGGGGGGGGNYGQDQSSMSSGGGSGGGYGNQDQSGGGGSGGYGQQDRGGRGRGGSGGGGGGGGGGYNRSSGGYEPRGRGGGRGGRGGMGGSDRGGFNKFGGPRDQGSRHDSEQDNSDNNTIFVQGLGENVTIESVADYFKQIGIIKTNKKTGQPMINLYTDRETGKLKGEATVSFDDPPSAKAAIDWFDGKEFSGNPIKVSFATRRADFNRGGGNGRGGRGRGGPMGRGGYGGGGSGGGGRGGFPSGGGGGGGQQRAGDWKCPNPTCENMNFSWRNECNQCKAPKPDGPGGGPGGSHMGGNYGDDRRGGRGGYDRGGYRGRGGDRGGFRGGRGGGDRGGFGPGKMDSRGEHRQDRRERAA [P525A;Y526A] | decreasing interaction strength
3 | MASNDYTQQATQSYGAYPTQPGQGYSQQSSQPYGQQSYSGYSQSTDTSGYGQSSYSSYGQSQNTGYGTQSTPQGYGSTGGYGSSQSSQSSYGQQSSYPGYGQQPAPSSTSGSYGSSSQSSSYGQPQSGSYSQQPSYGGQQQSYGQQQSYNPPQGYGQQNQYNSSSGGGGGGGGGGNYGQDQSSMSSGGGSGGGYGNQDQSGGGGSGGYGQQDRGGRGRGGSGGGGGGGGGGYNRSSGGYEPRGRGGGRGGRGGMGGSDRGGFNKFGGPRDQGSRHDSEQDNSDNNTIFVQGLGENVTIESVADYFKQIGIIKTNKKTGQPMINLYTDRETGKLKGEATVSFDDPPSAKAAIDWFDGKEFSGNPIKVSFATRRADFNRGGGNGRGGRGRGGPMGRGGYGGGGSGGGGRGGFPSGGGGGGGQQRAGDWKCPNPTCENMNFSWRNECNQCKAPKPDGPGGGPGGSHMGGNYGDDRRGGRGGYDRGGYRGRGGDRGGFRGGRGGGDRGGFGPGKMDSRGEQRQDRRERPY [H517Q] | decreasing interaction strength
4 | MASNDYTQQATQSYGAYPTQPGQGYSQQSSQPYGQQSYSGYSQSTDTSGYGQSSYSSYGQSQNTGYGTQSTPQGYGSTGGYGSSQSSQSSYGQQSSYPGYGQQPAPSSTSGSYGSSSQSSSYGQPQSGSYSQQPSYGGQQQSYGQQQSYNPPQGYGQQNQYNSSSGGGGGGGGGGNYGQDQSSMSSGGGSGGGYGNQDQSGGGGSGGYGQQDRGGRGRGGSGGGGGGGGGGYNRSSGGYEPRGRGGGRGGRGGMGGSDRGGFNKFGGPRDQGSRHDSEQDNSDNNTIFVQGLGENVTIESVADYFKQIGIIKTNKKTGQPMINLYTDRETGKLKGEATVSFDDPPSAKAAIDWFDGKEFSGNPIKVSFATRRADFNRGGGNGRGGRGRGGPMGRGGYGGGGSGGGGRGGFPSGGGGGGGQQRAGDWKCPNPTCENMNFSWRNECNQCKAPKPDGPGGGPGGSHMGGNYGDDRRGGRGGYDRGGYRGRGGDRGGFRGGRGGGDRGGFGPGKMDSRGEHRQDAAERPY [R521A;R522A] | decreasing interaction strength
5 | MASNDYTQQATQSYGAYPTQPGQGYSQQSSQPYGQQSYSGYSQSTDTSGYGQSSYSSYGQSQNTGYGTQSTPQGYGSTGGYGSSQSSQSSYGQQSSYPGYGQQPAPSSTSGSYGSSSQSSSYGQPQSGSYSQQPSYGGQQQSYGQQQSYNPPQGYGQQNQYNSSSGGGGGGGGGGNYGQDQSSMSSGGGSGGGYGNQDQSGGGGSGGYGQQDRGGRGRGGSGGGGGGGGGGYNRSSGGYEPRGRGGGRGGRGGMGGSDRGGFNKFGGPRDQGSRHDSEQDNSDNNTIFVQGLGENVTIESVADYFKQIGIIKTNKKTGQPMINLYTDRETGKLKGEATVSFDDPPSAKAAIDWFDGKEFSGNPIKVSFATRRADFNRGGGNGRGGRGRGGPMGRGGYGGGGSGGGGRGGFPSGGGGGGGQQRAGDWKCPNPTCENMNFSWRNECNQCKAPKPDGPGGGPGGSHMGGNYGDDRRGGRGGYDRGGYRGRGGDRGGFRGGRGGGDRGGFGAAAADSRGEHRQDRRERPY [P508A;G509A;K510A;M511A] | decreasing interaction strength
6 | MASNDYTQQATQSYGAYPTQPGQGYSQQSSQPYGQQSYSGYSQSTDTSGYGQSSYSSYGQSQNTGYGTQSTPQGYGSTGGYGSSQSSQSSYGQQSSYPGYGQQPAPSSTSGSYGSSSQSSSYGQPQSGSYSQQPSYGGQQQSYGQQQSYNPPQGYGQQNQYNSSSGGGGGGGGGGNYGQDQSSMSSGGGSGGGYGNQDQSGGGGSGGYGQQDRGGRGRGGSGGGGGGGGGGYNRSSGGYEPRGRGGGRGGRGGMGGSDRGGFNKFGGPRDQGSRHDSEQDNSDNNTIFVQGLGENVTIESVADYFKQIGIIKTNKKTGQPMINLYTDRETGKLKGEATVSFDDPPSAKAAIDWFDGKEFSGNPIKVSFATRRADFNRGGGNGRGGRGRGGPMGRGGYGGGGSGGGGRGGFPSGGGGGGGQQRAGDWKCPNPTCENMNFSWRNECNQCKAPKPDGPGGGPGGSHMGGNYGDDRRGGRGGYDRGGYRGRGGDRGGFRGGRGGGDRGGFGPGKMDSAGEHAQDAAERPY [R514A;R518A;R521A;R522A] | disrupting interaction strength

Reference: IntAct's records for PubMed 22778397
